Results published in patent US20260234116A1, “CYTOTOXIC EPOXYKETONE COMPOUNDS, PRECURSORS, COMPOSITIONS, AND METHODS OF USE” (Memorial Sloan-Kettering Cancer Center, priority 2023, published 2026).
Values belong to the molecule of their own block, whether it stands above or below them.

Columns and labels:
EpnF [1] = molecular target: T1, EpnF (Streptomyces hygroscopicus, UniProt V5RMU9); assay: Enzyme kinetic analysis by SPE-MS/MS assay; format: biochemical; details: for efficiency of EpnF-catalyzed conversion compared to parent substrate 11a (in words): quantitative SPE-MS/MS assay
Experimental: (§1) SPE-MS/MS analyses were carried out on an Agilent RapidFire 365 High-Throughput Mass Spectrometry System with 6495 triple quadrupole mass spectrometer. Determination of initial velocity: EpnF stock at 100 μM was diluted 10-fold in EpnF Buffer to a 10 μM working solution, which was further diluted to 8 concentrations (10-0.005 μM) in EpnF Buffer (intermediate volume 1350 μL, concentrations calculated for 1500 μL theoretical final volume corresponding to addition of substrate solutions below). The 8 EpnF enzyme dilutions were aliquoted (90 μL) into the corresponding 8 tubes of PCR tube strips (12 strips, one per time point; Thermo Scientific, AB-2000). The β-ketoacid 11 (20 mM in EtOH) was diluted to 10 μM in EpnF Buffer, then 10 μL of this solution was added to each of the tubes (1 μM final concentration, 100 μL final volume) to initiate the reaction. Samples were incubated in a heated shaker at 37° C. and 225 rpm for up to 120 min, and one tube strip was removed at each time point. Each tube was quenched with 5% formic acid in EpnF Buffer (100 μL), pipetted vigorously, and flash frozen on dry ice. Samples were thawed then centrifuged to precipitate protein and transferred to a conical-bottom 96-well plate (Thermo Scientific/Nunc, 249944) for SPE-MS/MS analysis. Measurement of Km and Vmax: Using the data from the initial velocity experiments above, an appropriate EpnF enzyme concentration was selected for each β-ketoacid 11 at which the rate of conversion to the epoxyketone 12 remained linear at 10 min (0.50 μM for 11n and 0.05 μM for all other substrates). Each substrate (20 mM in EtOH) was diluted to 1 mM in EpnF Buffer, then diluted to 8 concentrations (100-0.5 μM) in EpnF Buffer (intermediate volume 1350 μL, concentrations calculated for 1500 μL theoretical volume corresponding to addition of enzyme solutions below). The 8 substrate dilutions were aliquoted (90 μL) into the corresponding 8 tubes of PCR tube strips (12 strips, one per time point; Thermo Scientific, AB-2000). The EpnF enzyme stock solution was diluted in EpnF Buffer to the appropriate concentration for each substrate, then 10 μL of this solution was added to each of the tubes (100 μL final volume) to initiate the reaction. For the 0-min time point, 5% formic acid in EpnF Buffer was added to the β-ketoacid substrate before addition of the enzyme. Samples were incubated in a heated shaker at 37° C. and 225 rpm for up to 10 min, and one tube strip was removed at each time point. Each tube was quenched by addition of 5% formic acid in EpnF Buffer (100 μL), pipetted vigorously, and flash frozen on dry ice. Samples were thawed then centrifuged to precipitate proteins and the supernatants were transferred to a conical-bottom 96-well plate (Thermo Scientific/Nunc, 249944) for SPE-MS/MS analysis. Km and Vmax values for each substrate were calculated by Michaelis-Menten analysis. To obtain a quantitative assessment of EpnF substrate specificity, we developed a kinetic assay (10 min) using SPE-MS/MS (solid-phase extraction/triple quadrupole mass spectrometry; Agilent RapidFire 365 with 6495 MS) to enable direct detection of both substrates and products.

EpnF [2] = molecular target: T1, EpnF; assay: Semiquantitative epoxide capture assay (EpnF-catalyzed epoxyketone formation); format: biochemical; details: 1 μM EpnF; for EpnF-catalyzed conversion to epoxyketone (epoxide capture): 240 μM β-ketoacid substrate (FIG. 2)
Experimental: Recombinant EpnF was diluted to 1 μM in 180 μL EpnF Buffer in an 1.5 mL Eppendorf tube. The β-ketoacid 11 was added at various concentrations to a total reaction volume of 200 μL. The mixture was incubated in a heated shaker at 37° C. and 225 rpm for 1 h. The reaction mixture (30 μL×3 technical replicates) was transferred to a white, opaque 96-well plate (PerkinElmer, OptiPlate-96). Each plate also contained 30 μL×3 technical replicates of EpnF Buffer as a negative control. To each well, 15 μL of 125 mM nicotinamide in EpnF Buffer was added and mixed by pipetting. The plate was sealed with an adhesive foil cover (VWR Adhesive Foil for Microplates) and heated in an oven at 80° C. for 1 h. The plate was cooled to rt and 25 μL of 15% (v/v) acetophenone in EtOH and 25 μL of 1 M potassium hydroxide in EtOH were added to each well, then mixed by pipetting. The plate was cooled on ice for 10 min, then 125 μL formic acid was added to each well. The plate was resealed and heated in an oven at 100° C. for 5 min. The plate was cooled on ice for 5-10 min, then analyzed (λex 370 nm, λem 430 nm) on a fluorescence plate reader (Molecular Devices Spectramax M3).
We adapted a reported epoxide capture assay [Nelis, H. J. C. F.; Sinsheimer, J. E. (1981) A sensitive fluorimetric procedure for the determination of aliphatic epoxides under physiological conditions. Anal. Biochem. 115, 151-157.] to 96-well plate format to detect formation of the epoxyketone products semiquantitatively. Each β-ketoacid substrate 11 was incubated with recombinant, purified EpnF (1 h), then reacted with nicotinamide and acetophenone (1 h) to form a fluorescent 1,6-naphthyridinone 24. The fluorescent signals were normalized to that resulting from the known substrate β-ketoacid 11n as a positive control [Zabala, D.; Cartwright, J. W.; Roberts, D. M.; Law, B. J. C.; Song, L.; Samborskyy, M.; Leadlay, P. F.; Micklefield, J.; Challis, G. L. (2016) A flavin-dependent decarboxylase-dehydrogenase-monooxygenase assembles the warhead of α,β-epoxyketone proteasome inhibitors. J. Am. Chem. Soc. 138, 4342-4345.].

[3] = during isolation and characterization; cited from earlier work
[4] = substrate: C=C(C)C[C@H](NC(=O)[C@H](CO)NC(=O)CCCCC(C)C)C(=O)C(C)(C)C(=O)O; assay: Enzyme kinetic analysis by SPE-MS/MS assay; format: biochemical; details: other: 0.05 μM EpnF; 37.0 °C
Experimental: as §1

[5] = substrate: CC(C)CCCCC(=O)N[C@@H](CO)C(=O)N[C@@H](CC(C)C)C(=O)C(C)(C)C(=O)O; assay: Enzyme kinetic analysis by SPE-MS/MS assay; format: biochemical; details: other: 0.05 μM EpnF; 37.0 °C
Experimental: as §1

[6] = substrate: CC(C)CCCCC(=O)N[C@H](C(=O)N[C@@H](CC(C)C)C(=O)C(C)(C)C(=O)O)C(C)O; assay: Enzyme kinetic analysis by SPE-MS/MS assay; format: biochemical; details: other: 0.05 μM EpnF; 37.0 °C
Experimental: as §1

[7] = substrate: CCCC(=O)N[C@@H](CO)C(=O)N[C@@H](CC(C)C)C(=O)C(C)(C)C(=O)O; assay: Enzyme kinetic analysis by SPE-MS/MS assay; format: biochemical; details: other: 0.50 μM EpnF; 37.0 °C
Experimental: as §1

[8] = substrate: CC(C)C[C@H](NC(=O)[C@H](CO)NC(=O)c1ccccc1)C(=O)C(C)(C)C(=O)O; assay: Enzyme kinetic analysis by SPE-MS/MS assay; format: biochemical; details: other: 0.05 μM EpnF; 37.0 °C
Experimental: as §1

[9] = substrate: CC(C)CCCCC(=O)N[C@@H](C)C(=O)N[C@@H](CC(C)C)C(=O)C(C)(C)C(=O)O; assay: Enzyme kinetic analysis by SPE-MS/MS assay; format: biochemical; details: other: 0.05 μM EpnF; 37.0 °C
Experimental: as §1

efficiency of EpnF-catalyzed conversion compared to parent substrate 11a (in words) (EpnF [1]): slightly lower efficiency
Molecule: CC(C)C[C@H](NC(=O)[C@H](CO)NC(=O)c1ccccc1)C(=O)C(C)(C)C(=O)O [Compound 11o, (4S)-4-[(2S)-3-Hydroxy-2-(phenylformamido)propanamido]-2,2,6-trimethyl-3-oxoheptanoic acid]
EpnF-catalyzed conversion to epoxyketone (epoxide capture) (EpnF [2]): also tolerated

EpnF-catalyzed conversion to epoxyketone (epoxide capture) (EpnF [2]): permitted
Molecule: CCCC(=O)N[C@@H](CO)C(=O)N[C@@H](CC(C)C)C(=O)C(C)(C)C(=O)O [Compound 11n, (4S)-4-((S)-2-Butyramido-3-hydroxypropanamido)-2,2,6-trimethyl-3-oxoheptanoic acid]
spontaneous decarboxylation [3]: can undergo spontaneous decarboxylation

converted more efficiently than 11n (EpnF [1]; relative to 11n): ≈ 20 fold
EpnF-catalyzed formation of epoxyketone (epoxide capture) (EpnF [2]; 250 μM β-ketoacid substrate, 1 h, positive control 11n (FIG. 1)): lower levels
Molecule: C=C(C)C[C@H](NC(=O)[C@H](CO)NC(=O)CCCCC(C)C)C(=O)C(C)(C)C(=O)O [Compound 11b, (S)-4-((S)-3-Hydroxy-2-(6-methylheptanamido)propanamido)-2,2,6-trimethyl-3-oxohept-6-enoic acid]

efficiency of EpnF-catalyzed conversion compared to parent substrate 11a (in words) (EpnF [1]): slightly lower efficiency
Molecule: CC(C)CCCCC(=O)N[C@H](C(=O)N[C@@H](CC(C)C)C(=O)C(C)(C)C(=O)O)C(C)O (stereo partly drawn) [Compound 11l, (4S)-4-[(2S)-3-Hydroxy-2-(6-methylheptanamido)butanamido]-2,2,6-trimethyl-3-oxoheptanoic acid]
EpnF-catalyzed conversion to epoxyketone (epoxide capture) (EpnF [2]): tolerated

efficiency of EpnF-catalyzed conversion compared to parent substrate 11a (in words) (EpnF [1]): low conversion
Molecule: CC(C)CCCCC(=O)N[C@H](C(=O)N[C@@H](CC(C)C)C(=O)C(C)(C)C(=O)O)C(C)C [Compound 11k, (4S)-2,2,6-Trimethyl-4-[(2S)-3-methyl-2-(6-methylheptanamido)butanamido]-3-oxoheptanoic acid]
EpnF-catalyzed conversion to epoxyketone (epoxide capture) (EpnF [2]): tolerated to a lesser degree

solubility (kinetic parameters could not be determined) (EpnF [1]; EpnF Buffer): solubility limitations
EpnF-catalyzed conversion to epoxyketone (epoxide capture) (EpnF [2]): permitted
Molecule: CCCCCCCCCC(=O)N[C@@H](CO)C(=O)N[C@@H](CC(C)C)C(=O)C(C)(C)C(=O)O [Compound 11q, (4S)-4-[(2S)-2-Decanamido-3-hydroxypropanamido]-2,2,6-trimethyl-3-oxoheptanoic acid]

B1: EpnF (Streptomyces hygroscopicus) (protein)
chain: MSDSKSVNLFHRHGVPSFLEGIYQGRFEWDMISNFVAQDSADEKAGDAAVERLTDILRNRVNPTAVDATRELPEGLLEELRRTGFLNLQDSPDIGGLGLSSYNTFRVVQAAASWSVPVALVLGIQTAVGSGTYLRALPPGELHSYVEQRLLDGIISGSADTEPAGASNSARRTRAVPTDDGEAFLLTGEKIHIGNGPIADIVTVSAMLDEDGQDRPRLFFVETSDPGFSIRSRHEFMGVKGFPNAALVLDGVRVPRERMIVEVDPDTEVRITAELTMAVVRGRLHLITAPSLAISKLCLEWSRNFVNRRTIDGRPLGAREEIQHMVSSTMADVFAIQALAEWSLLPADQPDLGLNVAFEQNVTKAISAEICWRAADRTMDLLAGEGFETAPSKARRGAPALPLERFYRDARNLRISGGVSFLLQFWAARMSQFTYYGPDHAGQSAALSQDGGQQPCTDGLDPLNADHLRFAAAETRRLGAACQKFAADHPAPGLYEHQHRLIAFSRIADEILTMSVVLAKAARLHHEGRTEAQDLAAIYCAHARDRLAALWRQAEPVTAGPDHAAVSDAWLSGDDTYASLITGVITDVPPTADTHPGKR
Km [4]: 17.3 µM
kcat [4]: 0.114 s⁻¹
kcat/Km [4]: 6580 M⁻¹ s⁻¹
Km [5]: 11.6 µM
kcat [5]: 0.071 s⁻¹
kcat/Km [5]: 6120 M⁻¹ s⁻¹
Km [6]: 13.3 µM
kcat [6]: 0.016 s⁻¹
kcat/Km [6]: 1200 M⁻¹ s⁻¹
Km [7]: 23.1 µM
kcat [7]: 0.0067 s⁻¹
kcat/Km [7]: 290 M⁻¹ s⁻¹
Km [8]: 6.13 µM
kcat [8]: 0.0125 s⁻¹
kcat/Km [8]: 1880 M⁻¹ s⁻¹
Km [9]: 4.70 µM
kcat [9]: 0.025 s⁻¹
kcat/Km [9]: 5320 M⁻¹ s⁻¹
